Substrate: CC(C)CCC[C@@H](C)[C@H]1CC[C@H]2[C@@H]3CC=C4C[C@@H](O)CC[C@]4(C)[C@H]3CC[C@]12C
Assay: purified protein
Type: biochemical, Streptomyces sp. SA-COO
Settings: 0-1 mM cholesterol, 0.1 M potassium phosphate pH 7, 25 °C

B1: ChOA (cholesterol oxidase from Streptomyces sp. SA-COO) (Streptomyces sp. SA-COO) (protein)
chain: DNGGYVPAVVIGTGYGAAVSALRLGEAGVQTLMLEMGQLWNQPGPDGNIFCGMLNPDKRSSWFKNRTEAPLGSFLWLDVVNRNIDPYAGVLDRVNYDQMSVYVGRGVGGGSLVNGGMAVEPKRSYFEEILPRVDSSEMYDRYFPRANSMLRVNHIDTKWFEDTEWYKFARVSREQAGKAGLGTVFVPNVYDFGYMQREAAGEVPKSALATEVIYGNNHGKQSLDKTYLAAALGTGKVTIQTLHQVKTIRQTKDGGYALTVEQKDTDGKLLATKEISCRYLFLGAGSLGSTELLVRARDTGTLPNLNSEVGAGWGPNGNIMTARANHMWNPTGAHQSSIPALGIDAWDNSDSSVFAEIAPMPAGLETWVSLYLAITKNPQRGTFVYDAATDRAKLNWTRDQNAPAVNAAKALFDRINKANGTIYRYDLFGTQLKAFADDFCYHPLGGCVLGKATDDYGRVAGYKNLYVTDGSLIPGSVGVNPFVTITALAERNVERIIKQDVTAS
Km: 13 µM

— PMC6232189, “Expression optimization of recombinant cholesterol oxidase in Escherichia coli and its purification and characterization” (AMB Express, 2018)
